{"source": "patent US8642284", "data": [{"target": "histone H2B (calf thymus), P62808", "values": [{"protein": "recombinant mSir2α mutant G253A (protein) MADEVALALQAAGSPSAAAAMEAASQPADEPLRKRPRRDGPGLGRSPGEPSAAVAPAAAGCEAASAAAPAALWREAAGAAASAEREAPATAVAGDGDNGSGLRREPRAADDFDDDEGEEEDEAAAAAAAAAIGYRDNLLLTDGLLTNGFHSCESDDDDRTSHASSSDWTPRPRIGPYTFVQQHLMIGTDPRTILKDLLPETIPPPELDDMTLWQIVINILSEPPKRKKRKDINTIEDAVKLLQECKKIIVLTAAGVSVSCGIPDFRSRDGIYARLAVDFPDLPDPQAMFDIEYFRKDPRPFFKFAKEIYPGQFQPSLCHKFIALSDKEGKLLRNYTQNIDTLEQVAGIQRILQCHGSFATASCLICKYKVDCEAVRGDIFNQVVPRCPRCPADEPLAIMKPEIVFFGENLPEQFHRAMKYDKDEVDLLIVIGSSLKVRPVALIPSSIPHEVPQILINREPLPHLHFDVELLGDCDVIINELCHRLGGEYAKLCCNPVKLSEITEKPPRPQKELVHLSELPPTPLHISEDSSSPERTVPQDSSVIATLVDQATNNNVNDLEVSESSCVEEKPQEVQTSRNVENINVENPDFKAVGSSTADKNERTSVAETVRKCWPNRLAKEQISKRLEGNQYLFVPPNRYIFHGAEVYSDSEDDVLSSSSCGSNSDSGTCQSPSLEEPLEDESEIEEFYNGLEDDTERPECAGGSGFGADGGDQEVVNEAIATRQELTDVNYPSDKS", "mono-ADP-ribosylation activity relative to wild type (Phosphorimaging)": "completely abolished the activity"}, {"protein": "recombinant mSir2α mutant G270A (protein) MADEVALALQAAGSPSAAAAMEAASQPADEPLRKRPRRDGPGLGRSPGEPSAAVAPAAAGCEAASAAAPAALWREAAGAAASAEREAPATAVAGDGDNGSGLRREPRAADDFDDDEGEEEDEAAAAAAAAAIGYRDNLLLTDGLLTNGFHSCESDDDDRTSHASSSDWTPRPRIGPYTFVQQHLMIGTDPRTILKDLLPETIPPPELDDMTLWQIVINILSEPPKRKKRKDINTIEDAVKLLQECKKIIVLTGAGVSVSCGIPDFRSRDAIYARLAVDFPDLPDPQAMFDIEYFRKDPRPFFKFAKEIYPGQFQPSLCHKFIALSDKEGKLLRNYTQNIDTLEQVAGIQRILQCHGSFATASCLICKYKVDCEAVRGDIFNQVVPRCPRCPADEPLAIMKPEIVFFGENLPEQFHRAMKYDKDEVDLLIVIGSSLKVRPVALIPSSIPHEVPQILINREPLPHLHFDVELLGDCDVIINELCHRLGGEYAKLCCNPVKLSEITEKPPRPQKELVHLSELPPTPLHISEDSSSPERTVPQDSSVIATLVDQATNNNVNDLEVSESSCVEEKPQEVQTSRNVENINVENPDFKAVGSSTADKNERTSVAETVRKCWPNRLAKEQISKRLEGNQYLFVPPNRYIFHGAEVYSDSEDDVLSSSSCGSNSDSGTCQSPSLEEPLEDESEIEEFYNGLEDDTERPECAGGSGFGADGGDQEVVNEAIATRQELTDVNYPSDKS", "mono-ADP-ribosylation activity relative to wild type (Phosphorimaging)": "completely abolished the activity"}, {"protein": "recombinant mSir2α mutant G255A (protein) MADEVALALQAAGSPSAAAAMEAASQPADEPLRKRPRRDGPGLGRSPGEPSAAVAPAAAGCEAASAAAPAALWREAAGAAASAEREAPATAVAGDGDNGSGLRREPRAADDFDDDEGEEEDEAAAAAAAAAIGYRDNLLLTDGLLTNGFHSCESDDDDRTSHASSSDWTPRPRIGPYTFVQQHLMIGTDPRTILKDLLPETIPPPELDDMTLWQIVINILSEPPKRKKRKDINTIEDAVKLLQECKKIIVLTGAAVSVSCGIPDFRSRDGIYARLAVDFPDLPDPQAMFDIEYFRKDPRPFFKFAKEIYPGQFQPSLCHKFIALSDKEGKLLRNYTQNIDTLEQVAGIQRILQCHGSFATASCLICKYKVDCEAVRGDIFNQVVPRCPRCPADEPLAIMKPEIVFFGENLPEQFHRAMKYDKDEVDLLIVIGSSLKVRPVALIPSSIPHEVPQILINREPLPHLHFDVELLGDCDVIINELCHRLGGEYAKLCCNPVKLSEITEKPPRPQKELVHLSELPPTPLHISEDSSSPERTVPQDSSVIATLVDQATNNNVNDLEVSESSCVEEKPQEVQTSRNVENINVENPDFKAVGSSTADKNERTSVAETVRKCWPNRLAKEQISKRLEGNQYLFVPPNRYIFHGAEVYSDSEDDVLSSSSCGSNSDSGTCQSPSLEEPLEDESEIEEFYNGLEDDTERPECAGGSGFGADGGDQEVVNEAIATRQELTDVNYPSDKS", "mono-ADP-ribosylation activity relative to wild type (Phosphorimaging)": "completely abolished the activity"}, {"protein": "recombinant mSir2α mutant F265A (protein) MADEVALALQAAGSPSAAAAMEAASQPADEPLRKRPRRDGPGLGRSPGEPSAAVAPAAAGCEAASAAAPAALWREAAGAAASAEREAPATAVAGDGDNGSGLRREPRAADDFDDDEGEEEDEAAAAAAAAAIGYRDNLLLTDGLLTNGFHSCESDDDDRTSHASSSDWTPRPRIGPYTFVQQHLMIGTDPRTILKDLLPETIPPPELDDMTLWQIVINILSEPPKRKKRKDINTIEDAVKLLQECKKIIVLTGAGVSVSCGIPDARSRDGIYARLAVDFPDLPDPQAMFDIEYFRKDPRPFFKFAKEIYPGQFQPSLCHKFIALSDKEGKLLRNYTQNIDTLEQVAGIQRILQCHGSFATASCLICKYKVDCEAVRGDIFNQVVPRCPRCPADEPLAIMKPEIVFFGENLPEQFHRAMKYDKDEVDLLIVIGSSLKVRPVALIPSSIPHEVPQILINREPLPHLHFDVELLGDCDVIINELCHRLGGEYAKLCCNPVKLSEITEKPPRPQKELVHLSELPPTPLHISEDSSSPERTVPQDSSVIATLVDQATNNNVNDLEVSESSCVEEKPQEVQTSRNVENINVENPDFKAVGSSTADKNERTSVAETVRKCWPNRLAKEQISKRLEGNQYLFVPPNRYIFHGAEVYSDSEDDVLSSSSCGSNSDSGTCQSPSLEEPLEDESEIEEFYNGLEDDTERPECAGGSGFGADGGDQEVVNEAIATRQELTDVNYPSDKS", "mono-ADP-ribosylation activity relative to wild type (Phosphorimaging)": "completely abolished the activity"}, {"protein": "recombinant mSir2α mutant I262A (protein) MADEVALALQAAGSPSAAAAMEAASQPADEPLRKRPRRDGPGLGRSPGEPSAAVAPAAAGCEAASAAAPAALWREAAGAAASAEREAPATAVAGDGDNGSGLRREPRAADDFDDDEGEEEDEAAAAAAAAAIGYRDNLLLTDGLLTNGFHSCESDDDDRTSHASSSDWTPRPRIGPYTFVQQHLMIGTDPRTILKDLLPETIPPPELDDMTLWQIVINILSEPPKRKKRKDINTIEDAVKLLQECKKIIVLTGAGVSVSCGAPDFRSRDGIYARLAVDFPDLPDPQAMFDIEYFRKDPRPFFKFAKEIYPGQFQPSLCHKFIALSDKEGKLLRNYTQNIDTLEQVAGIQRILQCHGSFATASCLICKYKVDCEAVRGDIFNQVVPRCPRCPADEPLAIMKPEIVFFGENLPEQFHRAMKYDKDEVDLLIVIGSSLKVRPVALIPSSIPHEVPQILINREPLPHLHFDVELLGDCDVIINELCHRLGGEYAKLCCNPVKLSEITEKPPRPQKELVHLSELPPTPLHISEDSSSPERTVPQDSSVIATLVDQATNNNVNDLEVSESSCVEEKPQEVQTSRNVENINVENPDFKAVGSSTADKNERTSVAETVRKCWPNRLAKEQISKRLEGNQYLFVPPNRYIFHGAEVYSDSEDDVLSSSSCGSNSDSGTCQSPSLEEPLEDESEIEEFYNGLEDDTERPECAGGSGFGADGGDQEVVNEAIATRQELTDVNYPSDKS", "mono-ADP-ribosylation activity relative to wild type (Phosphorimaging)": "completely abolished the activity"}, {"protein": "recombinant mSir2α mutant S257A (protein) MADEVALALQAAGSPSAAAAMEAASQPADEPLRKRPRRDGPGLGRSPGEPSAAVAPAAAGCEAASAAAPAALWREAAGAAASAEREAPATAVAGDGDNGSGLRREPRAADDFDDDEGEEEDEAAAAAAAAAIGYRDNLLLTDGLLTNGFHSCESDDDDRTSHASSSDWTPRPRIGPYTFVQQHLMIGTDPRTILKDLLPETIPPPELDDMTLWQIVINILSEPPKRKKRKDINTIEDAVKLLQECKKIIVLTGAGVAVSCGIPDFRSRDGIYARLAVDFPDLPDPQAMFDIEYFRKDPRPFFKFAKEIYPGQFQPSLCHKFIALSDKEGKLLRNYTQNIDTLEQVAGIQRILQCHGSFATASCLICKYKVDCEAVRGDIFNQVVPRCPRCPADEPLAIMKPEIVFFGENLPEQFHRAMKYDKDEVDLLIVIGSSLKVRPVALIPSSIPHEVPQILINREPLPHLHFDVELLGDCDVIINELCHRLGGEYAKLCCNPVKLSEITEKPPRPQKELVHLSELPPTPLHISEDSSSPERTVPQDSSVIATLVDQATNNNVNDLEVSESSCVEEKPQEVQTSRNVENINVENPDFKAVGSSTADKNERTSVAETVRKCWPNRLAKEQISKRLEGNQYLFVPPNRYIFHGAEVYSDSEDDVLSSSSCGSNSDSGTCQSPSLEEPLEDESEIEEFYNGLEDDTERPECAGGSGFGADGGDQEVVNEAIATRQELTDVNYPSDKS", "mono-ADP-ribosylation activity relative to wild type (Phosphorimaging)": "completely abolished the activity"}, {"protein": "endogenous mSir2α protein of mouse NIH3T3 cells (protein) ADEVALALQAAGSPSAAAAMEAASQPADEPLRKRPRRDGPGLGRSPGEPSAAVAPAAAGCEAASAAAPAALWREAAGAAASAEREAPATAVAGDGDNGSGLRREPRAADDFDDDEGEEEDEAAAAAAAAAIGYRDNLLLTDGLLTNGFHSCESDDDDRTSHASSSDWTPRPRIGPYTFVQQHLMIGTDPRTILKDLLPETIPPPELDDMTLWQIVINILSEPPKRKKRKDINTIEDAVKLLQECKKIIVLTGAGVSVSCGIPDFRSRDGIYARLAVDFPDLPDPQAMFDIEYFRKDPRPFFKFAKEIYPGQFQPSLCHKFIALSDKEGKLLRNYTQNIDTLEQVAGIQRILQCHGSFATASCLICKYKVDCEAVRGDIFNQVVPRCPRCPADEPLAIMKPEIVFFGENLPEQFHRAMKYDKDEVDLLIVIGSSLKVRPVALIPSSIPHEVPQILINREPLPHLHFDVELLGDCDVIINELCHRLGGEYAKLCCNPVKLSEITEKPPRPQKELVHLSELPPTPLHISEDSSSPERTVPQDSSVIATLVDQATNNNVNDLEVSESSCVEEKPQEVQTSRNVENINVENPDFKAVGSSTADKNERTSVAETVRKCWPNRLAKEQISKRLEGNQYLFVPPNRYIFHGAEVYSDSEDDVLSSSSCGSNSDSGTCQSPSLEEPLEDESEIEEFYNGLEDDTERPECAGGSGFGADGGDQEVVNEAIATRQELTDVNYPSDKS", "ADP-ribosyl-transferase activity of the immune complex on Protein A-Sepharose beads": "ADP-ribosyl-transferase activity could be detected for the endogenous mSir2α immunoprecipitated from NIH3T3 whole cell extracts"}]}]}
